# Legend:
# [1] = In vivo pharmacokinetic study, i.v., ICR mice; parameters: species or system mouse; conditions: male ICR mice, i.v. 5 mg/kg; for AUCSN-38: SN-38 released from the dosed conjugate; for AUCSN-38 / AUC: 0–24 h; for AUC / clearance / Vd: mouse, in vivo, iv; for AUC: intact conjugate, read-out: AUCconjugate; for clearance / Vd: n = 3; for Vd: read-out: Vss
# Experimental: Six-week-old ICR mice, purchased from Biolasco (Taiwan), were divided into groups of three and 100 µl of dosing solution was given intravenously. Through cardiac puncture, blood sample was collected from each sacrificed animal at time points at 0.003, 0.083, 0.25, 0.5, 1, 2, 4, 6, 8, and 24 h and stored on ice (0–4°C). Plasma was separated from the blood by centrifugation at 3,000 rpm for 15 min at 4°C in a Beckman Model Allegra 6R centrifuge. Analysis of the plasma samples were done by using liquid chromatography with tandem mass spectrometry (LC/MS/MS). A gradient system was used for the separation of analyte and IS. Ammonium acetate aqueous solution (10 mM) containing 0.1% formic acid was used as mobile phase A, while mobile phase B was acetonitrile. The gradient profile was as follows: 0.0–1.1 min, 50%B; 1.2–3.7 min, 55%B–90%B; 3.8–5.0 min, 90%B–50%B at the flow rate of 1.5 ml/min. The autosampler was programmed to inject 15 µl of sample every 5 min.
# Next, to address the in vivo longevities and stabilities of U-4CR and/or “clicked” conjugates, in vivo systemic pharmacokinetic studies of conjugates 4–8 were carried out in the ICR mice. One single intravenous dose of 5 mg/kg of each conjugate was given to the mice. Plasma concentrations between the intact conjugate and the active payload (released SN-38 from the conjugate) in the circulation were measured and the pharmacokinetic parameters including clearance (CL), steady-state volume of distribution (Vss), and area under the plasma concentration curve (AUC0–24h) were determined (Table 2). Since SN-38 was the cytotoxic payload, the AUC ratio between the intact conjugate and SN-38 reflected the plasma stability, as these conjugates should be capable of uncaging the payload with higher protease activities in the tumor microenvironment. We envisioned that U-4CR could be a valuable synthetic strategy that unifies several advantageous features for bioactive SMDC in vivo. In addition to installing hydrophilic moiety to increase solubility and functional groups that modulate steady-state volume of distribution of the conjugate in vivo, a facile reactive handle for payload conjugation was also included. Indeed, we observed structure–property trends among the U-4CR-derived conjugates 5–8. Since these conjugates harnessed the same exo-BCN clicked SN-38 portion, the U-4CR products between the Zn-DPA targeting ligand and other components might contribute factors that could affect their in vivo stabilities (Table 2).
# ICR mice = assay: In vivo maximum tolerated dose determination (acute toxicity); parameters: species or system mouse; conditions: 5-day repeat dose, 1-week recovery monitoring
# Experimental: The acute toxicity studies were determined in ICR male mice. In general, the studies were conducted using the dose of 10-50 mpk for dosing 5 consecutive days and the survival of the animals and their body weight were monitored for 14 days after first dosing.
# However, acute toxicity is another important parameter to be monitored in the development of SMDC. […] Not limited by the components described within, the optimization of in vivo pharmacokinetic profiles of alternative ZnDPA-based SMDC, we anticipate that U-4CR with combinations of different components can lead to the construction of improved properties, such as decrease in the clearance rate and steady-state volume of distribution (Vss). Moreover, we envision employment of an imaging agent as one of the components can also furnish functional theranostic if desired.
# [2] = system: MiaPaca-2 human pancreatic tumor; assay: In vivo anti-tumor study, MiaPaca-2 xenograft in nude mice; conditions: MiaPaca-2 tumor-bearing nude mice, i.v.; conjugate 4 10 mg/kg qd (5 + 5); CPT-11 40 mg/kg twice/week for 2 weeks
# Text: The number of viable cells was counted with a hemocytometer with trypan blue staining under a light microscope on the day of tumor cell inoculation. Cells were suspended with phenol red free RPMI-1640 and Matrigel in a 1:1 ratio. MiaPaca-2 suspension cells (1 × 10^6 cells) were implanted subcutaneously into the left flank of the nude mice using a 1-ml syringe (needle 24G × 1 in., 0.55 × 25 mm; TERUMO). A digital caliper was used to measure tumor sizes and dimensions as the tumor volume in mm^3 was calculated with the formula: Volume = (length × width^2)/2. Tumor-bearing mice were randomized (n = 8 per group) and mean tumor volume was approximately 170 mm^3. […] Body weight and tumor size were measured twice weekly.
# [3] = system: MiaPaca-2 pancreatic cancer cells; conditions: MiaPaca-2, MTS, 72 h
# Experimental: MiaPaCa-2 cells, obtained from the Bioresource Collection and Research Center, Hsinchu, Taiwan, and the Detroit 551 cells were cultured in Dulbecco’s modified Eagle’s medium (DMEM). All cells were grown in a humidified CO2 incubator at 37°C. Cell viability was determined by the MTS assay. In brief, cells were cultured (2,500–3,000 cells/well) in flat bottomed 96-well plates for 24 h. Serial-diluted conjugates were added to the cell media and incubated for 72 h. Culture medium was removed after 72 h followed by the addition of 100 μl of MTS and PMS mixture solution. In a humidified incubator at 37°C with 5% CO2, cells were then incubated for another 1.5 h for viable cells to convert the tetrazolium salt into formazan. The conversion to formazan was monitored at the 490-nm absorbance by a BioTek PowerWave-X Absorbance Microplate Reader. In this MTS assay, the recorded data were normalized to DMSO-treated and background controls. Using GraphPad Prism version 4 software, the IC50 value was the amount of each conjugate that caused a 50% reduction in cell viability in comparison to DMSO-treated controls.
Structure (SMILES),AUCSN-38 [1],difference in the AUC for the intact conjugate versus the released SN-38 within 24 h [1],AUC [1],clearance [1],Vd [1],maximum tolerated dose (MTD) (ICR mice),tumor shrinkage [2],decrease in potency towards MiaPaca-2 (IC50 ratio) compared to SN-38 [3]
CCOP(=O)(CNC(=O)C1(N(CCCCOc2cc(CN(Cc3ccccn3)Cc3ccccn3)cc(CN(Cc3ccccn3)Cc3ccccn3)c2)C(=O)c2ccc(-c3ccc(O)cc3)cc2)CCN(C(=O)OC[C@H]2[C@@H]3CCc4nnn(CCOCCOCCN(Cc5ccc(C(=O)Oc6ccc7nc8c(c(CC)c7c6)Cn6c-8cc7c(c6=O)COC(=O)[C@]7(O)CC)cc5)C(=O)C5(c6ccc(Cl)cc6)CCCCC5)c4CC[C@@H]32)CC1)OCC [conjugate 8],"1,549 ng/ml*h",40 fold,62000 ng·h/mL,1.3 mL/min/kg,0.1 L/kg,30 mpk,–,–
CCc1c2c(nc3ccc(OC(=O)c4ccc(CN(CCOCCOCCn5nnc6c5CC[C@H]5[C@@H](CC6)[C@@H]5COC(=O)N(C)CCCC(=O)N(CCCCOc5cc(CN(Cc6ccccn6)Cc6ccccn6)cc(CN(Cc6ccccn6)Cc6ccccn6)c5)C5(C(=O)NC(C)(C)C)CCOCC5)C(=O)C5(c6ccc(Cl)cc6)CCCCC5)cc4)cc13)-c1cc3c(c(=O)n1C2)COC(=O)[C@]3(O)CC [conjugate 5],696 ng·h/mL,–,1590 ng·h/mL,50.2 mL/min/kg,18.5 L/kg,–,–,–
"CCc1c2c(nc3ccc(OC(=O)N4CCC(N5CCCCC5)CC4)cc13)-c1cc3c(c(=O)n1C2)COC(=O)[C@]3(O)CC [CPT-11, irinotecan]",–,–,–,–,–,–,not observed,~350 fold
CCc1c2c(nc3ccc(OC(=O)c4ccc(CN(CCOCCOCCn5nnc6c5CC[C@H]5[C@@H](CC6)[C@@H]5COC(=O)N5CCC(C(=O)N(CCCCOc6cc(CN(Cc7ccccn7)Cc7ccccn7)cc(CN(Cc7ccccn7)Cc7ccccn7)c6)C6(C(=O)NC(C)(C)C)CCOCC6)CC5)C(=O)C5(c6ccc(Cl)cc6)CCCCC5)cc4)cc13)-c1cc3c(c(=O)n1C2)COC(=O)[C@]3(O)CC [conjugate 6],927 ng·h/mL,–,6460 ng·h/mL,13.5 mL/min/kg,4.1 L/kg,–,–,–
C/C=C/C(=O)N(CCCCOc1cc(CN(Cc2ccccn2)Cc2ccccn2)cc(CN(Cc2ccccn2)Cc2ccccn2)c1)C1(C(=O)NC(C)(C)C)CCN(C(=O)OC[C@H]2[C@@H]3CCc4nnn(CCOCCOCCN(Cc5ccc(C(=O)Oc6ccc7nc8c(c(CC)c7c6)Cn6c-8cc7c(c6=O)COC(=O)[C@]7(O)CC)cc5)C(=O)C5(c6ccc(Cl)cc6)CCCCC5)c4CC[C@@H]32)CC1 [conjugate 7],"1,309 ng/ml*h",–,20700 ng·h/mL,8.3 mL/min/kg,3.6 L/kg,–,–,–

# Source: publication PMC8886374, “Click Chemistry and Multicomponent Reaction for Linker Diversification of Zinc Dipicolylamine-Based Drug Conjugates” (Frontiers in Chemistry, 2022)
